Laboratory results as given in PMC7192608.

T1: Rap1-DBD (Saccharomyces cerevisiae, UniProt P11938 360-598)
T1 sequence: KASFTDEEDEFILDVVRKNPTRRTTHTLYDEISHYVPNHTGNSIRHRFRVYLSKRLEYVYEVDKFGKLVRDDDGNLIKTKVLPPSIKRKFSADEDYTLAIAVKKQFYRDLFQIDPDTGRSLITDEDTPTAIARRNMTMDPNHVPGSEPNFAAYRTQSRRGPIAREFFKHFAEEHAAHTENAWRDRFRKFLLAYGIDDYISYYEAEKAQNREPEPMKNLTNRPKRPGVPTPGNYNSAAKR

T2: Rap1 BRCT domain (Saccharomyces cerevisiae, UniProt P11938 1-358)
T2 sequence: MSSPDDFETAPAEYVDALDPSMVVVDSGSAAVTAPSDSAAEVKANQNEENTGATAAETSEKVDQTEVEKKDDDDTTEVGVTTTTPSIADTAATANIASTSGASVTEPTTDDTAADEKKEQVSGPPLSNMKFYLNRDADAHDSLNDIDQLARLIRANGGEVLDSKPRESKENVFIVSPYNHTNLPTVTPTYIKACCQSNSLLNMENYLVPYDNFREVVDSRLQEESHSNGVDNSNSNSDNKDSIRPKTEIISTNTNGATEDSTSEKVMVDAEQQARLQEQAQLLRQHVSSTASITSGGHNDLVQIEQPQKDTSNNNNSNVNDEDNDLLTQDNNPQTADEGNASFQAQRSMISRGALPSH

T3: Rap1 RCT (C-terminal domain) (Saccharomyces cerevisiae, UniProt P11938 600-827)
T3 sequence: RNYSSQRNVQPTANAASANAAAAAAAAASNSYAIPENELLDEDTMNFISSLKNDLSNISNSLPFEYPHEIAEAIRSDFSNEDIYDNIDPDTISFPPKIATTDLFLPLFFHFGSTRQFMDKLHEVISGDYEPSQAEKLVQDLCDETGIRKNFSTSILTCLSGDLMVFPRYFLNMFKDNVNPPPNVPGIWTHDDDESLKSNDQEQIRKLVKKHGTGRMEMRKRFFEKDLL


Assays:
Assay in all cases: EMSA
Rap1-DBD = target: T1, Rap1-DBD
Rap1 BRCT domain = target: T2, Rap1 BRCT domain
[1] = target: T3, Rap1 RCT (C-terminal domain)

Binder | Kd (Rap1-DBD) | binding result (Rap1 BRCT domain) | binding result [1]
TGGGTGTGTGGGTGTGTGGGTGTGTGGG (structured_DNA) [4-G3 no tail] | 22 nM | – | –
AATTCTGGGTGTGTGGGTGTGTGGGTGTGTGGGTGTGG (structured_DNA) [4-G3] | 28 nM | no binding | no binding
TTGGGTGGGTGGGTGGGTT (structured_DNA) [T-loops] | 45 nM | – | –
